Literature values, collected in paper PMC3138048.

Target: Lys199 (UniProt position 223, AKQRLKCASLQ)
Test: chemical modification

Q: Which pKa does the source give for “Human serum albumin (HSA) (Homo sapiens)” here?
A: 7.9
